Assay results from PMC8894357 (2022).

Target: T1, Human β-catenin, GST tagged (human, UniProt P35222 1-781)
T1 chain: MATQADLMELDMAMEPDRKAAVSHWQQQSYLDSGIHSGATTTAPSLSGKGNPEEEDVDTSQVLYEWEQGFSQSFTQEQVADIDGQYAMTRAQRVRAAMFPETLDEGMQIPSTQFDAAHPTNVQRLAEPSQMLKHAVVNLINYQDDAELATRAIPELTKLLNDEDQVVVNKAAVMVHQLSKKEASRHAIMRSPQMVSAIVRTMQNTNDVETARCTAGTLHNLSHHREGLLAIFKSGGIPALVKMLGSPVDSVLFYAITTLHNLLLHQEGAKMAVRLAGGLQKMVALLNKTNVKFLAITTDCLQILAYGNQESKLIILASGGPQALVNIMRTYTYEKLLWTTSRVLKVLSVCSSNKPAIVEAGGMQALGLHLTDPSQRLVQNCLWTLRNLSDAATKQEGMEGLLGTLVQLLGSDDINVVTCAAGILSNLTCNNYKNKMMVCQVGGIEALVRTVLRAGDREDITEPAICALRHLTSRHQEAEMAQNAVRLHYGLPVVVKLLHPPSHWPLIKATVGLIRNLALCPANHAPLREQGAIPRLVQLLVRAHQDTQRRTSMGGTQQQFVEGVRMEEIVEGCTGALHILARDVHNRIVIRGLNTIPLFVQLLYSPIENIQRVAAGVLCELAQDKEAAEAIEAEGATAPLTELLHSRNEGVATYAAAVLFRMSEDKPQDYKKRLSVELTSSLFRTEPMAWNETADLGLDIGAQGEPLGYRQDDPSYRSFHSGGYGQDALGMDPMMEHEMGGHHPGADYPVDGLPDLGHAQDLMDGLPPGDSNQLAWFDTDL

Kd: 35 nM
B1: αE-catenin, monomeric fraction (mouse, full length, His(6x) tagged) (natural protein)
chain: MTAVHAGNINFKWDPKSLEIRTLAVERLLEPLVTQVTTLVNTNSKGPSNKKRGRSKKAHVLAASVEQATENFLEKGDKIAKESQFLKEELVVAVEDVRKQGDLMKSAAGEFADDPCSSVKRGNMVRAARALLSAVTRLLILADMADVYKLLVQLKVVEDGILKLRNAGNEQDLGIQYKALKPEVDKLNIMAAKRQQELKDVGNRDQMAAARGILQKNVPILYTASQACLQHPDVAAYKANRDLIYKQLQQAVTGISNAAQATASDDAAQHQGGSGGELAYALNNFDKQIIVDPLSFSEERFRPSLEERLESIISGAALMADSSCTRDDRRERIVAECNAVRQALQDLLSEYMGNAGRKERSDALNSAIDKMTKKTRDLRRQLRKAVMDHVSDSFLETNVPLLVLIEAAKNGNEKEVKEYAQVFREHANKLIEVANLACSISNNEEGVKLVRMSASQLEALCPQVINAALALAAKPQSKLAQENMDLFKEQWEKQVRVLTDAVDDITSIDDFLAVSENHILEDVNKCVIALQEKDVDGLDRTAGAIRGRAARVIHVVTSEMDNYEPGVYTEKVLEATKLLSNTVMPRFTEQVEAAVEALSSDPAQPMDENEFIDASRLVYDGIRDIRKAVLMIRTPEELDDSDFETEDFDVRSRTSVQTEDDQLIAGQSARAIMAQLPQEQKAKIAEQVASFQEEKSKLDAEVSKWDDSGNDIIVLAKQMCMIMMEMTDFTRGKGPLKNTSDVISAAKKIAEAGSRMDKLGRTIADHCPDSACKQDLLAYLQRIALYCHQLNICSKVKAEVQNLGGELVVSGVDSAMSLIQAAKNLMNAVVQTVKASYVASTKYQKSQGMASLNLPAVSWKMKAPEKKPLVKREKQDETQTKIKRASQKKHVNPVQALSEFKAMDSI
